Data taken from patent US20200277366A1 (UCB, published 2020).

Assays:
[1] = target: T1, human TNF-alpha (human, UniProt P01375 77-233); experiment: cell-based or functional assay
[2] = target: T2, cynomolgus TNF-alpha (cynomolgus, UniProt P79337 77-233); experiment: cell-based or functional assay
[3] = target: T3, murine TNF-alpha (mouse, UniProt P06804 80-235); experiment: L929 cell killing assay with murine TNF-α (N=3); told in words
T3 construct: also called mouse TNF; Murine TNF-α
T3 sequence (looked up): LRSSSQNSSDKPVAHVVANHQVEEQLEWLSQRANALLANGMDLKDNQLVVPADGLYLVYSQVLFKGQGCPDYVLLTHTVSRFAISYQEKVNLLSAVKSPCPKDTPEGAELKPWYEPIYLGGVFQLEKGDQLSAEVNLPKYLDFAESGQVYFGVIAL

[4] = target: T4, human serum albumin (human, UniProt P02768 25-609); experiment: SPR (Biacore T200), TrYbe 18B captured by anti-human F(ab')2, HSA titrated 100 nM to 3.125 nM
T4 construct: also called HSA; Human Albumin
Method: (§1) BIA (Biamolecular Interaction Analysis) was performed using a Biacore T200 (GE Healthcare). Affinipure F(ab′)2 Fragment goat anti-human IgG, F(ab′)2 fragment specific (Jackson ImmunoResearch) was immobilised on a CM5 Sensor Chip via amine coupling chemistry to a capture level of ˜5000 response units (RUs). HBS-EP buffer (10 mM HEPES pH 7.4, 0.15 M NaCl, 3 mM EDTA, 0.05% Surfactant P20, GE Healthcare) was used as the running buffer with a flow rate of 10 μL/min. […] The surface was regenerated by 2×10 μL injection of 50 mM HCl, interspersed by a 5 μL injection of 5 mM NaOH at a flowrate of 10 μL/min. Background subtraction binding curves were analysed using the T200evaluation software (version 1.0) following standard procedures. Kinetic parameters were determined from the fitting algorithm.

[5] = target: T1, human TNF-alpha; experiment: SPR (Biacore T200), TrYbe 18B captured by anti-human F(ab')2, human TNF titrated 5 nM to 0.15625 nM
Method: as §1

[6] = target: T5, human IL-17A (human, UniProt Q16552 24-155); experiment: SPR (Biacore T200), TrYbe 18B captured by anti-human F(ab')2, human IL-17A titrated 5 nM to 0.15625 nM
T5 construct: also called hIL-17A
Method: as §1

[7] = target: T6, human IL-17F (human, UniProt Q96PD4 31-163); experiment: SPR (Biacore T200), TrYbe 18B captured by anti-human F(ab')2, human IL-17F titrated 10 nM to 0.3125 nM
T6 sequence (looked up): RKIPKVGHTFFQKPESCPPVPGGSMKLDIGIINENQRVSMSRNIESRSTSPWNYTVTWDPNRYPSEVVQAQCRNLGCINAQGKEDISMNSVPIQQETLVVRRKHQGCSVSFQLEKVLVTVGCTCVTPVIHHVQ
Method: as §1

[8] = target: T2, cynomolgus TNF-alpha; experiment: SPR (Biacore T200), TrYbe 18B captured by anti-human F(ab')2, cynomolgus TNF titrated 5 nM to 0.15625 nM
Method: as §1, with “of […]. Background subtraction” for “of 10 μL/min. Background subtraction”

[9] = target: T7, cynomolgus IL-17F (cynomolgus, UniProt G7P4V0 31-163); experiment: SPR (Biacore T200), TrYbe 18B captured by anti-human F(ab')2, cynomolgus IL-17F titrated 40 nM to 1.25 nM
T7 construct: also called cyno IL-17F
T7 sequence: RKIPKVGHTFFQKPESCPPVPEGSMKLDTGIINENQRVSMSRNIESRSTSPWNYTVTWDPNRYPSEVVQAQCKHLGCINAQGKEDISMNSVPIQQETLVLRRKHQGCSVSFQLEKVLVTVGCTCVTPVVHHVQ
Method: as §1, with “of […]. Background subtraction” for “of 10 μL/min. Background subtraction”

[10] = target: T8, cynomolgus IL-17A (cynomolgus, UniProt A0A2K5TTB0 24-155); experiment: SPR (Biacore T200), TrYbe 18B captured by anti-human F(ab')2, cynomolgus IL-17A titrated 10 nM to 0.3125 nM
T8 construct: also called cIL-17A; cynoIL-17A
Method: as §1, with “of […]. Background subtraction” for “of 10 μL/min. Background subtraction”

[11] = target: T9, cynomolgus serum albumin (cynomolgus, UniProt A2V9Z4 25-608); experiment: SPR (Biacore T200), TrYbe 18B captured by anti-human F(ab')2, cynomolgus albumin titrated 100 nM to 3.125 nM
T9 construct: also called Cynomolgus Albumin; CSA
Method: as §1, with “of […]. Background subtraction” for “of 10 μL/min. Background subtraction”

[12] = target: T7, cynomolgus IL-17F; experiment: SPR (Biacore T200), TrYbe 18B captured; column head prints KD(nM), but the KD(M) column shows the value is in pM
Method: as §1, with “of […]. Background subtraction” for “of 10 μL/min. Background subtraction”

[13] = target: T9, cynomolgus serum albumin; experiment: as above
Method: as §1, with “of […]. Background subtraction” for “of 10 μL/min. Background subtraction”

[14] = target: T2, cynomolgus TNF-alpha; experiment: as above
Method: as §1, with “of […]. Background subtraction” for “of 10 μL/min. Background subtraction”

[15] = target: T5, human IL-17A; experiment: SPR (Biacore T200), TrYbe 18B captured by anti-human F(ab')2, human IL-17A titrated 5 nM to 0.15625 nM; kd at the instrument's limit
Method: as §1

[16] = target: T8, cynomolgus IL-17A; experiment: SPR (Biacore T200), TrYbe 18B captured by anti-human F(ab')2, cynomolgus IL-17A titrated 10 nM to 0.3125 nM; kd at the instrument's limit
Method: as §1, with “of […]. Background subtraction” for “of 10 μL/min. Background subtraction”

[17] = target: T8, cynomolgus IL-17A; experiment: SPR (Biacore T200), TrYbe 18B captured; column head prints KD(nM), but the KD(M) column shows the value is in pM; kd at the instrument's limit
Method: as §1, with “of […]. Background subtraction” for “of 10 μL/min. Background subtraction”

[18] = target: T5, human IL-17A; experiment: SPR (Biacore T200), TrYbe 18B captured by anti-human F(ab')2, human IL-17A titrated 5 nM to 0.15625 nM; footnote: dissociation limited due to limit of the instrument
Method: as §1

[19] = target: T8, cynomolgus IL-17A; experiment: SPR (Biacore T200), TrYbe 18B captured by anti-human F(ab')2, cynomolgus IL-17A titrated 10 nM to 0.3125 nM; footnote: dissociation limited due to limit of the instrument
Method: as §1, with “of […]. Background subtraction” for “of 10 μL/min. Background subtraction”

Kd [4]: 1740 pM
koff [4]: 0.000135 s⁻¹
kon [4]: 77500 M⁻¹ s⁻¹
Kd [5]: 11.6 pM
koff [5]: 6.43e-05 s⁻¹
kon [5]: 5.54e+06 M⁻¹ s⁻¹
kon [6]: 5.52e+06 M⁻¹ s⁻¹
Kd [7]: 7.51 pM
koff [7]: 3.8e-05 s⁻¹
kon [7]: 5.06e+06 M⁻¹ s⁻¹
Kd [8]: 7.16 pM
koff [8]: 6.38e-05 s⁻¹
kon [8]: 8.9e+06 M⁻¹ s⁻¹
Kd [9]: 288 pM
koff [9]: 0.000167 s⁻¹
kon [9]: 582000 M⁻¹ s⁻¹
kon [10]: 1.67e+06 M⁻¹ s⁻¹
Kd [11]: 2720 pM
koff [11]: 0.000159 s⁻¹
kon [11]: 58300 M⁻¹ s⁻¹
Kd [12]: 288 pM
Kd [13]: 2720 pM
Kd [14]: 7.16 pM
Kd [15]: ≤ 1.81 pM
Kd [16]: ≤ 5.99 pM
Kd [17]: 5.99 pM
koff [18]: ≤ 1e-05 s⁻¹
koff [19]: ≤ 1e-05 s⁻¹
B1: Fab496.g3-(HC)dsscFv(HL)2109 / Fab496.g3-(LC)dsscFv(HL)645 (TrYbe 18B) (other)
heavy: EVQLVESGGGLVQPGGSLRLSCAASGFTFSDYNMAWVRQAPGKGLEWVATITYEGRNTYYRDSVKGRFTISRDNAKNSLYLQMNSLRAEDTAVYYCASPPQYYEGSIYRLWFAHWGQGTLVTVSSASTKGPSVFPLAPSSKSTSGGTAALGCLVKDYFPEPVTVSWNSGALTSGVHTFPAVLQSSGLYSLSSVVTVPSSSLGTQTYICNVNHKPSNTKVDKKVEPKSCSGGGGSGGGGSEVQLVESGGGLVKPGGSLRLSCAASGYTFTDNYIHWVRQAPGKCLEWIGYINPSSAYAHYNEKFKTRFTISVDKAKNSAYLQMNSLRAEDTAVYYCTRRYYSAMPFAYWGQGTLVTVSSGGGGSGGGGSGGGGSGGGGSDIQMTQSPSSLSASVGDRVTITCRASEDIYSGLAWYQQKPGKVPKLLIYDSSTLHTGVPSRFSGTGSGTDYTLTISSLQPEDVATYFCQQNYDFPLTFGCGTKLEIKRT
light: AIQLTQSPSSLSASVGDRVTITCRADESVRTLMHWYQQKPGKAPKLLIYLVSNSEIGVPDRFSGSGSGTDFRLTISSLQPEDFATYYCQQTWSDPWTFGQGTKVEIKRTVAAPSVFIFPPSDEQLKSGTASVVCLLNNFYPREAKVQWKVDNALQSGNSQESVTEQDSKDSTYSLSSTLTLSKADYEKHKVYACEVTHQGLSSPVTKSFNRGECSGGGGSGGGGSEVQLLESGGGLVQPGGSLRLSCAVSGIDLSNYAINWVRQAPGKCLEWIGIIWASGTTFYATWAKGRFTISRDNSKNTVYLQMNSLRAEDTAVYYCARTVPGYSTAPYFDLWGQGTLVTVSSGGGGSGGGGSGGGGSGGGGSDIQMTQSPSSVSASVGDRVTITCQSSPSVWSNFLSWYQQKPGKAPKLLIYEASKLTSGVPSRFSGSGSGTDFTLTISSLQPEDFATYYCGGGYSSISDTTFGCGTKVEIKRT
notes: Tri-specific Fab-2xdsscFv (TrYbe) with no Fc; Stably expressed in CHO; also called Fab496.g3-(HC)dsHLscFv2109 (LC)dsHLscFv645
Mean EC50, L929 cell survival (CellTiter-Glo) with Actinomycin D and human TNF-α [1]: 5.87 pM
Mean EC50, L929 cell survival (CellTiter-Glo) with Actinomycin D and cynomolgus TNF-α [2]: 4.97 pM
binding result [3]: no binding
